Test [1] concerns the target T1, sNogoR344-Fc (rat, UniProt Q99M75 26-344).
T1 construct: also called Fc-sNogoR344; Ig-sNogoR344; not shown: hinge region and Fc region of rat IgG1
T1 chain: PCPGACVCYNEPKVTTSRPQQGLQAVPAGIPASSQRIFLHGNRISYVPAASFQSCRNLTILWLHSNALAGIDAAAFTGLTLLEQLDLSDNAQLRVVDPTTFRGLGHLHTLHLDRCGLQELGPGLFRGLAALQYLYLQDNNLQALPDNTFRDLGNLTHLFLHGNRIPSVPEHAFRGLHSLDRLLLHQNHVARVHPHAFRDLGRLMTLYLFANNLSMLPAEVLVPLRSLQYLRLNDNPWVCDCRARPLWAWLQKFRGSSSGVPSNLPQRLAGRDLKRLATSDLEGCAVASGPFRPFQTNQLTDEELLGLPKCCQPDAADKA
Description: SPA bead competition: inhibition of 125I-Nogo66 binding to immobilised sNogoR344-Fc.

Test [2] addresses Nogo receptor-1 (species and form not stated). Description: method not given.
Test [3] deals with T2, mutant peptide Arg119His LDLSDNAQLHVVDPTT (rat).
T2 peptide: LDLSDNAQLHVVDPTT
The test can be described thus: ELISA, peptide on MaxiSorp plate, serial dilution of 7E11. In general terms: An ELISA detects its analyte on a solid surface through an enzyme-linked reagent.

Test [4] has as its target T3, mutant peptide Gln117Ala LDLSDNAALRVVDPTT (rat).
T3 construct: also called Gla117Ala (so in the source)
T3 peptide: LDLSDNAALRVVDPTT
The description is as above.

B1: monoclonal antibody 7E11 (antibody, V domains shown)
VH: VQLQESGAELVMPGASVKMSCKASGYTFTDYWMHWVKQRPGQGLEWIGAIDPSDSYSSYNQNFKGKATLTVDGSSSTAYMQLSSLTSEDSAVYYCARRITEAGAWFAYWGQGTTVT
VL: DVVMTQTPLSLPVSLGDQASISCRSSQSLVHSNGNTYLHWYLQKPGQSPKLLIYKVSNRFSGVPDRFSGSGSGTDFTLKISRVDAEDLGVYFCSQSTHVPFTFGGGTKLEIKR
Usually IC50 stands for the midpoint of a concentration-inhibition curve. Read a high IC50 as a need for much substance. By Kd is commonly meant the equilibrium constant for the complex coming apart. The molecule B1 registered an IC50 in test [1] of 400 nM. Besides, the dissociation constant (Kd) in test [2] came to 100 nM. In addition, the results for the “fold increase of EC50 against the original peptide” value in test [3] and in test [4] were 25 fold and 30 fold, respectively.

These data come from JP2007501612A (dated 2007).
